Experimental data as given in patent publication US20240279344A1 (CDR LIFE, published 2024).
Values joined by “and” are separate entries in the source; they are usually repeats but may differ in a detail not shown here. Equal entries are not always repeated.

Target: T1, HLA-A2/MAGE-A4 complex, recombinant (HLA-A*02:01 extracellular domain, human b2m, MAGE-A4 peptide 230-239 …) (human, UniProt P04439 25-299 at identity 0.94); P61769 21-119)
T1 construct: also called MAGE-A4 pMHC; MAGE-A4/HLA-A2 complex
Test: SPR, monovalent

B1: M1116 (bispecific antibody, V domains shown)
VH: EVQLLESGGGSVQPGGSLRLSCTVSGFSLSNYAMSWVRQAPGKGLEWIGIVSSGGTTYYASWAKGRFTISKDTSKNTVYLQMNSLRAEDTASYYCAKDLYYGPTTYSAANLWGQGTSVTVSS
VL: SYELTQPPSVSVSPGQTASITCTADTLSRSYASWYQQKPGQSPVLVIYRDTSRPSGIPERFSGSNSGNTATLTISGTQAMDEADYYCATRPSSGSNFQLFGGGTKLTVL
notes: Variant of humanized M0763; tested in SPR as anti-CD3 Fab x anti-MAGE-A4 scFv bispecific
  Kd: 3.88 nM

B2: M1088 (bispecific antibody, V domains shown)
VH: EVQLLESGGGSVQPGGSLRLSCTVSGFSLSNYAMSWVRQAPGKGLEWIGIVSSGGTTYYASWAKGRFTISKDTSKNTVYLQMNSLRAEDTASYYCAKDLYYGPTTYSAFNLWGQGTSVTVSS
VL: SYELTQPPSVSVSPGQTASITCTADTLSRSYASWYQQKPGQSPVLVIYRDTSRPSGIPERFSGSNSGNTATLTISGTQAMDEADYYCATRPGSGSNFQLFGGGTKLTVL
notes: as for B1
  Kd: 3.9 nM

B3: M1097 (bispecific antibody, V domains shown)
VH: EVQLLESGGGSVQPGGSLRLSCTVSGFSLSNYAMSWVRQAPGKGLEWIGIVSSGGTTYYASWAKGRFTISKDTSKNTVYLQMNSLRAEDTASYYCAKNVYYGPTTYSAFNLWGQGTSVTVSS
VL: SYELTQPPSVSVSPGQTASITCTADTLSRSYASWYQQKPGQSPVLVIYRDTSRPSGIPERFSGSNSGNTATLTISGTQAMDEADYYCATRPSSGSNFQLFGGGTKLTVL
notes: as for B1
  Kd: 0.99 nM

B4: M1089 (bispecific antibody, V domains shown)
VH: EVQLLESGGGSVQPGGSLRLSCTVSGFSLSNYAMSWVRQAPGKGLEWIGIVSSGGTTYYASWAKGRFTISKDTSKNTVYLQMNSLRAEDTASYYCAKDLYYGPTTYSAFNLWGQGTSVTVSS
VL: SYELTQPPSVSVSPGQTASITCTADTLSRSYASWYQQKPGQSPVLVIYRDTSRPSGIPERFSGSNSGNTATLTISGTQAMDEADYYCATRPASGSNFQLFGGGTKLTVL
notes: as for B1
  Kd: 1.34 nM and 0.79 nM

B5: M1096 (bispecific antibody, V domains shown)
VH: EVQLLESGGGSVQPGGSLRLSCTVSGFSLSNYAMSWVRQAPGKGLEWIGIVSSGGTTYYASWAKGRFTISKDTSKNTVYLQMNSLRAEDTASYYCAKDLYYGPTTQSAFNLWGQGTSVTVSS
VL: SYELTQPPSVSVSPGQTASITCTADTLSRSYASWYQQKPGQSPVLVIYRDTSRPSGIPERFSGSNSGNTATLTISGTQAMDEADYYCATRPSSGSNFQLFGGGTKLTVL
notes: as for B1
  Kd: 3.23 nM

B6: M1105 (bispecific antibody, V domains shown)
VH: EVQLLESGGGSVQPGGSLRLSCTVSGFSLSNYAMSWVRQAPGKGLEWIGIVSSGGTTYYASWAKGRFTISKDTSKNTVYLQMNSLRAEDTASYYCAKALYYGPTTYSAFNLWGQGTSVTVSS
VL: SYELTQPPSVSVSPGQTASITCTADTLSRSYASWYQQKPGQSPVLVIYRDTSRPSGIPERFSGSNSGNTATLTISGTQAMDEADYYCATRPSSGSNFQLFGGGTKLTVL
notes: as for B1
  Kd: 4.12 nM

B7: M1087 (bispecific antibody, V domains shown)
VH: EVQLLESGGGSVQPGGSLRLSCTVSGFSLSNYAMSWVRQAPGKGLEWIGIVSSGGTTYYASWAKGRFTISKDTSKNTVYLQMNSLRAEDTASYYCAKDLYYGPTTYSAFNLWGQGTSVTVSS
VL: SYELTQPPSVSVSPGQTASITCTADTLSRSYASWYQQKPGQSPVLVIYRDTSRPSGIPERFSGSNSGNTATLTISGTQAMDEADYYCATRDSSGSNFQLFGGGTKLTVL
notes: as for B1
  Kd: 0.82 nM

B8: M1100 (bispecific antibody, V domains shown)
VH: EVQLLESGGGSVQPGGSLRLSCTVSGFSLSNYAMSWVRQAPGKGLEWIGIVSSGGTTYYASWAKGRFTISKDTSKNTVYLQMNSLRAEDTASYYCAKDLYYGPTTYHDLNLWGQGTSVTVSS
VL: SYELTQPPSVSVSPGQTASITCTADTLSRSYASWYQQKPGQSPVLVIYRDTSRPSGIPERFSGSNSGNTATLTISGTQAMDEADYYCATRPSSGSNFQLFGGGTKLTVL
notes: as for B1
  Kd: 0.66 nM

B9: M1040 (bispecific antibody, V domains shown)
VH: ESQVLESGGGSVQPGGSLRLSCTVSGFSLSNYAMSWVRQAPGKGLEYIGIVSSGGTTYYASWAKGRFTISKDTSKNTVYLQMNSLRAEDTASYYCAKDLYYGPTTYHQLNLWGQGTSVTVSS
VL: SYELTQPPSVSVSPGQTASITCTADTLSRSYASWYQQKPGQSPVLVIYRDTSRPSGIPERFSGSNSGNTATLTISGTQAMDEADYYCATSDGSGSNFQLFGGGTKLTVL
notes: as for B1
  Kd: 0.45 nM

B10: M1051 (bispecific antibody, V domains shown)
VH: ESQVLESGGGSVQPGGSLRLSCTVSGFSLSNYAMSWVRQAPGKGLEYIGIVSSGGRKRYASWAKGRFTISKDTSKNTVYLQMNSLRAEDTASYYCAKDLYYGPTTYSAFNLWGQGTSVTVSS
VL: SYELTQPPSVSVSPGQTASITCTADTLSRSYASWYQQKPGQSPVLVIYRDTSRPSGIPERFSGSNSGNTATLTISGTQAMDEADYYCATSDGSGSNFQLFGGGTKLTVL
notes: as for B1
  Kd: 5 nM

B11: M1037 (bispecific antibody, V domains shown)
VH: ESQVLESGGGSVQPGGSLRLSCTVSGFSLSNYAMSWVRQAPGKGLEYIGIVSSGGTTYYASWAKGRFTISKDTSKNTVYLQMNSLRAEDTASYYCAKDLYYGPTTYHDLNLWGQGTSVTVSS
VL: SYELTQPPSVSVSPGQTASITCTADTLSRSYASWYQQKPGQSPVLVIYRDTSRPSGIPERFSGSNSGNTATLTISGTQAMDEADYYCATSDGSGSNFQLFGGGTKLTVL
notes: as for B1
  Kd: 0.4 nM

B12: M1086 (bispecific antibody, V domains shown)
VH: EVQLLESGGGSVQPGGSLRLSCTVSGFSLSNYAMSWVRQAPGKGLEWIGIVSSGGTTYYASWAKGRFTISKDTSKNTVYLQMNSLRAEDTASYYCAKDLYYGPTTYSAFNLWGQGTSVTVSS
VL: SYELTQPPSVSVSPGQTASITCTADTLSRSYASWYQQKPGQSPVLVIYRDTSRPSGIPERFSGSNSGNTATLTISGTQAMDEADYYCATSPSSGSNFQLFGGGTKLTVL
notes: as for B1
  Kd: 7.02 nM

B13: M1090 (bispecific antibody, V domains shown)
VH: EVQLLESGGGSVQPGGSLRLSCTVSGFSLSNYAMSWVRQAPGKGLEWIGIVSSGGTTYYASWAKGRFTISKDTSKNTVYLQMNSLRAEDTASYYCAKDLYYGPTTYSAFNLWGQGTSVTVSS
VL: SYELTQPPSVSVSPGQTASITCTADTLSRSYASWYQQKPGQSPVLVIYRDTSRPSGIPERFSGSNSGNTATLTISGTQAMDEADYYCATKPSSGSNFQLFGGGTKLTVL
notes: as for B1
  Kd: 1.8 nM

B14: M1101 (bispecific antibody, V domains shown)
VH: EVQLLESGGGSVQPGGSLRLSCTVSGFSLSNYAMSWVRQAPGKGLEWIGIVSSGGRKRYASWAKGRFTISKDTSKNTVYLQMNSLRAEDTASYYCAKDLYYGPTTYSAFNLWGQGTSVTVSS
VL: SYELTQPPSVSVSPGQTASITCTADTLSRSYASWYQQKPGQSPVLVIYRDTSRPSGIPERFSGSNSGNTATLTISGTQAMDEADYYCATRPSSGSNFQLFGGGTKLTVL
notes: as for B1
  Kd: 1.69 nM

B15: M1108 (bispecific antibody, V domains shown)
VH: EVQLLESGGGSVQPGGSLRLSCTVSGFSLSNYAMSWVRQAPGKGLEWIGIVSSGGTTYYASWAKGRFTISKDTSKNTVYLQMNSLRAEDTASYYCAKDLYAGPTTYSAFNLWGQGTSVTVSS
VL: SYELTQPPSVSVSPGQTASITCTADTLSRSYASWYQQKPGQSPVLVIYRDTSRPSGIPERFSGSNSGNTATLTISGTQAMDEADYYCATRPSSGSNFQLFGGGTKLTVL
notes: as for B1
  Kd: 19 nM

B16: M1098 (bispecific antibody, V domains shown)
VH: EVQLLESGGGSVQPGGSLRLSCTVSGFSLSNYAMSWVRQAPGKGLEWIGIVSSGGTTYYASWAKGRFTISKDTSKNTVYLQMNSLRAEDTASYYCAKNVYYGPTTQSAFNLWGQGTSVTVSS
VL: SYELTQPPSVSVSPGQTASITCTADTLSRSYASWYQQKPGQSPVLVIYRDTSRPSGIPERFSGSNSGNTATLTISGTQAMDEADYYCATRPSSGSNFQLFGGGTKLTVL
notes: as for B1
  Kd: 1.73 nM

B17: M1038 (bispecific antibody, V domains shown)
VH: ESQVLESGGGSVQPGGSLRLSCTVSGFSLSNYAMSWVRQAPGKGLEYIGIVSSGGTTYYASWAKGRFTISKDTSKNTVYLQMNSLRAEDTASYYCAKNVYYGPTTYSAFNLWGQGTSVTVSS
VL: SYELTQPPSVSVSPGQTASITCTADTLSRSYASWYQQKPGQSPVLVIYRDTSRPSGIPERFSGSNSGNTATLTISGTQAMDEADYYCATSDGSGSNFQLFGGGTKLTVL
notes: as for B1
  Kd: 3.6 nM

B18: M1107 (bispecific antibody, V domains shown)
VH: EVQLLESGGGSVQPGGSLRLSCTVSGFSLSNYAMSWVRQAPGKGLEWIGIVSSGGTTYYASWAKGRFTISKDTSKNTVYLQMNSLRAEDTASYYCAKDLAYGPTTYSAFNLWGQGTSVTVSS
VL: SYELTQPPSVSVSPGQTASITCTADTLSRSYASWYQQKPGQSPVLVIYRDTSRPSGIPERFSGSNSGNTATLTISGTQAMDEADYYCATRPSSGSNFQLFGGGTKLTVL
notes: as for B1
  Kd: 1.45 nM

B19: M1099 (bispecific antibody, V domains shown)
VH: EVQLLESGGGSVQPGGSLRLSCTVSGFSLSNYAMSWVRQAPGKGLEWIGIVSSGGTTYYASWAKGRFTISKDTSKNTVYLQMNSLRAEDTASYYCAKNVYYGPTTQSAFNLWGQGTSVTVSS
VL: SYELTQPPSVSVSPGQTASITCTADTLSRSYASWYQQKPGQSPVLVIYRDTSRPSGIPERFSGSNSGNTATLTISGTQAMDEADYYCATSDGSGSNFQLFGGGTKLTVL
notes: as for B1
  Kd: 2.13 nM

B20: M1041 (bispecific antibody, V domains shown)
VH: ESQVLESGGGSVQPGGSLRLSCTVSGFSLSNYAMSWVRQAPGKGLEYIGIVSSGGTTYYASWAKGRFTISKDTSKNTVYLQMNSLRAEDTASYYCAKDLYYGPTTYSAFNLWGQGTSVTVSS
VL: SYELTQPPSVSVSPGQTASITCTADTLSRSYASWYQQKPGQSPVLVIYRDTSRPSGIPERFSGSNSGNTATLTISGTQAMDEADYYCATRPSSGSNFQLFGGGTKLTVL
notes: as for B1
  Kd: 0.24 nM

B21: M1036 (bispecific antibody, V domains shown)
VH: ESQVLESGGGSVQPGGSLRLSCTVSGFSLSNYAMSWVRQAPGKGLEYIGIVSSGGTTYYASWAKGRFTISKDTSKNTVYLQMNSLRAEDTASYYCAKDLYYGPTTQSAFNLWGQGTSVTVSS
VL: SYELTQPPSVSVSPGQTASITCTADTLSRSYASWYQQKPGQSPVLVIYRDTSRPSGIPERFSGSNSGNTATLTISGTQAMDEADYYCATSDGSGSNFQLFGGGTKLTVL
notes: as for B1
  Kd: 4.9 nM
